For one substance, % activity results are on record in patent US20160136234A1.

Targets include ZAP-70 (h) (human) (UniProt P43403); ASK1 (h) (human) (UniProt Q99683); HIPK2 (h) (human) (UniProt Q9H2X6); ROCK-II (h) (human) (UniProt O75116); CDK2/cyclinE (h) (human) (UniProt P24941); HIPK3 (h) (human) (UniProt Q9H422); Fyn (h) (human) (UniProt P06241); CDK5/p25 (h) (human) (UniProt Q00535); MEK1 (h) (human) (UniProt Q02750); Met (h) (human) (UniProt P08581).
What all share (assay): cell-based or functional assay
In a further experiment the target is T1, Flt1 (h) (human) (UniProt P17948).
T1 sequence (looked up): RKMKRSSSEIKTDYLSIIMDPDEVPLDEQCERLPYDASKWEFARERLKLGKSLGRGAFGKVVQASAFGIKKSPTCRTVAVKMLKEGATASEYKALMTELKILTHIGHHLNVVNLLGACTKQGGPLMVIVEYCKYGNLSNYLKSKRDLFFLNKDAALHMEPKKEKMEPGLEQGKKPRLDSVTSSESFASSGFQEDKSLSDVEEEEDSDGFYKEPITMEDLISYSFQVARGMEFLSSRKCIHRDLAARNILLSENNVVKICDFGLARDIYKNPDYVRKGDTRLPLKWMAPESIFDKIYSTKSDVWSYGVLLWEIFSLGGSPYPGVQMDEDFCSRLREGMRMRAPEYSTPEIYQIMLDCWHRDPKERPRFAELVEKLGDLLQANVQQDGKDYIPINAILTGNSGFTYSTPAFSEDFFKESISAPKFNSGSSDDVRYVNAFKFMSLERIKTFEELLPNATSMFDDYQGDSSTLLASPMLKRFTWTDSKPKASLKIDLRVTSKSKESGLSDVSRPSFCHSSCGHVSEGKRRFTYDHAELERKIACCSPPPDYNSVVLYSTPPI

Another experiment concerns the target T2, BrSK1 (h) (human) (UniProt Q8TDC3).
T2 sequence (looked up): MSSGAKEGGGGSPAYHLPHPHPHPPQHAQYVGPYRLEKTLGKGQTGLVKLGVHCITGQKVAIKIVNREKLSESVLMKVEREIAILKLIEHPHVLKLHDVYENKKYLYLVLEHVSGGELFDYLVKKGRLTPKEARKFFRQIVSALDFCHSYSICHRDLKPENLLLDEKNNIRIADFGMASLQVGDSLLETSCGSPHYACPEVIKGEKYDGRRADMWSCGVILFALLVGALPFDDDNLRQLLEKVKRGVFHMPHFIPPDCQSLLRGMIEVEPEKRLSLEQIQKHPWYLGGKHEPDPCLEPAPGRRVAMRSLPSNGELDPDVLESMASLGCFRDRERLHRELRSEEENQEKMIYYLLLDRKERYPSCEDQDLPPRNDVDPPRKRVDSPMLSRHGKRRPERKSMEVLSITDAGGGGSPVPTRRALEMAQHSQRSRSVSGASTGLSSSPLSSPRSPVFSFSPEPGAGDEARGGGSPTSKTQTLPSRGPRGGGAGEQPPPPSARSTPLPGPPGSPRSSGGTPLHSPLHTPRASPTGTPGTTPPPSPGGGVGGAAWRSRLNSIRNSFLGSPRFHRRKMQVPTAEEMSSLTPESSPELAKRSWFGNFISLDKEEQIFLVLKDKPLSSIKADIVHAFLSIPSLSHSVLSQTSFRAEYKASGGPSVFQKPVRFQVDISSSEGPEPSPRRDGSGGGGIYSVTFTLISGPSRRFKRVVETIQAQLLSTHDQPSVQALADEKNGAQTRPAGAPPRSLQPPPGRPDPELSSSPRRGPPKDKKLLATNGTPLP

A further experiment addresses T3, IKKβ (h) (human) (UniProt O14920).
T3 sequence (looked up): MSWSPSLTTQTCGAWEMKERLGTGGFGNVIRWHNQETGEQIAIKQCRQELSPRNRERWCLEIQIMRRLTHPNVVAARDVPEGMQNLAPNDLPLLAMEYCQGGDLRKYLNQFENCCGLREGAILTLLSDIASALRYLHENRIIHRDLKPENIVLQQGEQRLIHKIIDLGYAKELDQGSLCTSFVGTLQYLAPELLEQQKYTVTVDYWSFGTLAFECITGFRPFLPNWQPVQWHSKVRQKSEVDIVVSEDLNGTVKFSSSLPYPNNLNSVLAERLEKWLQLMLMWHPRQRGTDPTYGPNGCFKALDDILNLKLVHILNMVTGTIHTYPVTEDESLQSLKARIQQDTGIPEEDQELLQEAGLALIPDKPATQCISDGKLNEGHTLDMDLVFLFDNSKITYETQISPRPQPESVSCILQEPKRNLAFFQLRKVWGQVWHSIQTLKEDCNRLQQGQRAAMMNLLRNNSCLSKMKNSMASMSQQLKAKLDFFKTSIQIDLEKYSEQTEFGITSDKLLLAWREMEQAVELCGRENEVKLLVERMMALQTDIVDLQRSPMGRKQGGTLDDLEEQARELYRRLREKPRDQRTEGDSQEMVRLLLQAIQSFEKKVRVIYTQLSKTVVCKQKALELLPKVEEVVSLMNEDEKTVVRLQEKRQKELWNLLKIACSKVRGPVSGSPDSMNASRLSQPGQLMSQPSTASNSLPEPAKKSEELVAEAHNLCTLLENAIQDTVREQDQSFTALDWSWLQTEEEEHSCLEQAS

The target in another experiment is T4, Aurora-A (h) (human) (UniProt O14965).
T4 sequence (looked up): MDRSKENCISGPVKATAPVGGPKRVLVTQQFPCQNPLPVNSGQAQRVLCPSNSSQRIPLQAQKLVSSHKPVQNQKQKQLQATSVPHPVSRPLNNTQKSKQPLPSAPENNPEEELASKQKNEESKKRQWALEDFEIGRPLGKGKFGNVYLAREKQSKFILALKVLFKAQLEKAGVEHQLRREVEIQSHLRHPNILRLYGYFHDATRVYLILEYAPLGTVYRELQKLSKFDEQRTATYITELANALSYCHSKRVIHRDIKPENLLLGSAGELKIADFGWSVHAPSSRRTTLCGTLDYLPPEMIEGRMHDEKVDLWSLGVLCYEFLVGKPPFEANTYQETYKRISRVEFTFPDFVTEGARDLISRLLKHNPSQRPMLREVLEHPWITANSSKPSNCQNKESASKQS

Chain of Met (h) (human) (P08581 956-1390 limits assumed): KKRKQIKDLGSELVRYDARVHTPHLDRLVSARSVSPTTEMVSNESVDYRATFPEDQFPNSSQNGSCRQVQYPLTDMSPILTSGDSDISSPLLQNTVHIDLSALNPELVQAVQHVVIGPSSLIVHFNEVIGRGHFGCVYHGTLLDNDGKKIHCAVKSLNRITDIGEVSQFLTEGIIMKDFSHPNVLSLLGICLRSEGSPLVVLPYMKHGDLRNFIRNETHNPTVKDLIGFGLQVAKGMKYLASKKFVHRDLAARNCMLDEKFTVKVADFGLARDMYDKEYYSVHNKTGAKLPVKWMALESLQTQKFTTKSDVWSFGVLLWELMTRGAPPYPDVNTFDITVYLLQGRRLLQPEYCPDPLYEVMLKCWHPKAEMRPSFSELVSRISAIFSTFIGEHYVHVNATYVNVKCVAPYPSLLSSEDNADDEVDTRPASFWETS
Chain of ZAP-70 (h) (human) (P43403 whole entry): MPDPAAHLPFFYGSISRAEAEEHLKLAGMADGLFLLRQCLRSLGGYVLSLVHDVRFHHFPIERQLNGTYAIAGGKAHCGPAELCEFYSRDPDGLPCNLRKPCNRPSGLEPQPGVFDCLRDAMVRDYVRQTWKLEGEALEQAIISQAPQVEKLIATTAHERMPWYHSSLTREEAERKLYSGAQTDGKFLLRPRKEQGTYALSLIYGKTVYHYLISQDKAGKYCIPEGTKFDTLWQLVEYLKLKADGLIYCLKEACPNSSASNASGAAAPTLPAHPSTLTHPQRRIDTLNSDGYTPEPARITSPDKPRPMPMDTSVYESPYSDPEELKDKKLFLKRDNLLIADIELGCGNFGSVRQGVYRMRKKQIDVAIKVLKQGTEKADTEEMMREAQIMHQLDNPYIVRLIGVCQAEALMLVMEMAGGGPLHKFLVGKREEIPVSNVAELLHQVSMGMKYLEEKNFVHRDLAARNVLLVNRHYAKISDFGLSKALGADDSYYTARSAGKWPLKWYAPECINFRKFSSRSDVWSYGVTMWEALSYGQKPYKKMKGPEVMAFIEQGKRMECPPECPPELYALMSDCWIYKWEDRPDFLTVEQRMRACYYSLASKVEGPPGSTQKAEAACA

As to MMI-0300 (peptide), the % activity at 100 µM stood at 69% with Flt1 (h) (human); 75% in the experiment with ZAP-70 (h) (human); 80% with ASK1 (h) (human); 73% with HIPK2 (h) (human); 67% with BrSK1 (h) (human); 84% with IKKβ (h) (human). In addition, the % activity at 100 µM with ROCK-II (h) (human) amounted to 74%; with CDK2/cyclinE (h) (human), 94%; with HIPK3 (h) (human) it was 93%; with Fyn (h) (human), 74%; with Aurora-A (h) (human), 92%; with CDK5/p25 (h) (human) it was 89%. For the same substance, the figures for the % activity at 100 µM in the experiment with MEK1 (h) (human) and with Met (h) (human) were 77% and 65%, respectively.
